T1: human FcγRIIa R type extracellular domain with C-terminal His tag (human, UniProt P12318 34-217)
T1 construct: extracellular domain; also called FcgRIIaR
T1 sequence (looked up): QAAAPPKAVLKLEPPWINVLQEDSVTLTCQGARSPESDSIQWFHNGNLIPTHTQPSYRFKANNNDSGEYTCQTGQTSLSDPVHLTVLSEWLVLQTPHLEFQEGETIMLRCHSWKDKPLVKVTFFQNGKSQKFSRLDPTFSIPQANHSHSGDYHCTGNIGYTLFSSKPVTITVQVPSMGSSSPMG

T2: human FcγRIIb extracellular domain with C-terminal His tag (human, UniProt P31994 43-217)
T2 construct: extracellular domain; also called FcgRIIb
T2 sequence (looked up): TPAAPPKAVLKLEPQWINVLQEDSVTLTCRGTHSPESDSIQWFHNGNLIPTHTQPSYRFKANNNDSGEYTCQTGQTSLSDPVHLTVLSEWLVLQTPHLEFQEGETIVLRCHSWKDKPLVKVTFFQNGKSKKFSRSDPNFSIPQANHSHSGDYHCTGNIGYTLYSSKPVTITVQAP

T3: human FcγRIIa H type extracellular domain with C-terminal His tag (human, UniProt P12318 34-217)
T3 construct: extracellular domain; also called FcgRIIaH
T3 sequence (looked up): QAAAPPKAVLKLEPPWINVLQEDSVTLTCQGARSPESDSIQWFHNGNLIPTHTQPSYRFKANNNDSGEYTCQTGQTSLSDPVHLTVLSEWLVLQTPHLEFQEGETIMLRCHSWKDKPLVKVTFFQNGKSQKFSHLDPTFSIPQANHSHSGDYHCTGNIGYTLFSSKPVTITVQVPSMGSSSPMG


Columns and labels:
[1] = target: T4, human FcγRIa extracellular domain with C-terminal His tag (human, UniProt P12314 16-292); test: SPR, antibody captured, FcgR analyte
T4 construct: Whole entry named; also called FcgRIa

[2] = target: T1, human FcγRIIa R type extracellular …; test: SPR, antibody captured, FcgR analyte
[3] = target: T2, human FcγRIIb extracellular domain with …; test: SPR, antibody captured, FcgR analyte
[4] = target: T4, human FcγRIa extracellular domain with …; test: SPR, KD of IL6R-G1d/IL6R-L divided by KD of variant
[5] = target: T1, human FcγRIIa R type extracellular …; test: as above
[6] = target: T3, human FcγRIIa H type extracellular …; test: as above
[7] = target: T2, human FcγRIIb extracellular domain with …; test: as above
[8] = target: T5, human FcγRIIIa V type extracellular domain with C-terminal His tag (human, UniProt P08637 17-208); test: as above
T5 construct: extracellular domain; also called FcgRIIIaV
T5 sequence (P08637 17-208 F176V): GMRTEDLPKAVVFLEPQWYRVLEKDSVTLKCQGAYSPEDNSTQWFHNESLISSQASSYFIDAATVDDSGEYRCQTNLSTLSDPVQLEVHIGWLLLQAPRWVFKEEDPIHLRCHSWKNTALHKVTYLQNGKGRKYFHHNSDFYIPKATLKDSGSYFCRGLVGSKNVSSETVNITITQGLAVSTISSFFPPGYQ

T4 sequence (P12314 16-292): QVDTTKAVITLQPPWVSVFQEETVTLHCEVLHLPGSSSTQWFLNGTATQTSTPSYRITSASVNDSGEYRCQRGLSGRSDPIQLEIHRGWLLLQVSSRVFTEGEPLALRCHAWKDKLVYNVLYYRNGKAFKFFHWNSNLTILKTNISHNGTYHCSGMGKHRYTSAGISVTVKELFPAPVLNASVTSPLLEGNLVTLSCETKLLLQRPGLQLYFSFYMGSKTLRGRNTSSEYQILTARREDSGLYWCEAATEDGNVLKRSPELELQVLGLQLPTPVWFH

| Binder | Kd [1] [nM] | Kd [2] [nM] | Kd [3] [nM] | Relative FcgRIa-binding Activity [4] | Relative FcgRIIaR-binding Activity [5] | Relative FcgRIIaH-binding Activity [6] | Relative FcgRIIb-binding Activity [7] | Relative FcgRIIIaV-binding Activity [8] |
| --- | --- | --- | --- | --- | --- | --- | --- | --- |
| IL6R-P758/IL6R-L (antibody, human IgG1, kappa) heavy: QVQLQESGPGLVKPSETLSLTCAVSGHSISHDHAWSWVRQPPGEGLEWIGFISYSGITNYNPSLQGRVTISRDNSKNTLYLQMNSLRAEDTAVYYCARSLARTTAMDYWGEGTLVTVSSASTKGPSVFPLAPSSKSTSGGTAALGCLVKDYFPEPVTVSWNSGALTSGVHTFPAVLQSSGLYSLSSVVTVPSSSLGTQTYICNVNHKPSNTKVDKKVEPKSCDKTHTCPPCPAPELLGDDSVFLFPPKPKDTLMISRTPEVTCVVVDVSDEDGEVKFNWYVDGVEVHNAKTKPREEQYNSTYRVVSVLTVLHQDWLNGKEYKCKVSNKGLPSSIEKTISKAKGQPREPQVYTLPPSRDELTKNQVSLTCLVKGFYPSDIAVEWESNGQPENNYKTTPPVLDSDGSFFLYSKLTVDKSRWQQGNVFSCSVMHEALHNHYTQKSLSLSP light: not shown | 11 | 1900 | 260 | 0.029 | 0.58 | 0.021 | 8.1 | 0.006 |
| IL6R-P760/IL6R-L (antibody, human IgG1, kappa) heavy: QVQLQESGPGLVKPSETLSLTCAVSGHSISHDHAWSWVRQPPGEGLEWIGFISYSGITNYNPSLQGRVTISRDNSKNTLYLQMNSLRAEDTAVYYCARSLARTTAMDYWGEGTLVTVSSASTKGPSVFPLAPSSKSTSGGTAALGCLVKDYFPEPVTVSWNSGALTSGVHTFPAVLQSSGLYSLSSVVTVPSSSLGTQTYICNVNHKPSNTKVDKKVEPKSCDKTHTCPPCPAPELLGDDSVFLFPPKPKDTLMISRTPEVTCVVVDVSEEDGEVKFNWYVDGVEVHNAKTKPREEQYNSTYRVVSVLTVLHQDWLNGKEYKCKVSNKGLPSSIEKTISKAKGQPREPQVYTLPPSRDELTKNQVSLTCLVKGFYPSDIAVEWESNGQPENNYKTTPPVLDSDGSFFLYSKLTVDKSRWQQGNVFSCSVMHEALHNHYTQKSLSLSP light: not shown | 15 | 1600 | 190 | 0.021 | 0.69 | 0.027 | 11.1 | 0.008 |

Further binders by falling Kd [1], results first:

| Kd [1] [nM] | Kd [2] [nM] | Kd [3] [nM] | Relative FcgRIa-binding Activity [4] | Relative FcgRIIaR-binding Activity [5] | Relative FcgRIIaH-binding Activity [6] | Relative FcgRIIb-binding Activity [7] | Relative FcgRIIIaV-binding Activity [8] | Binder |
| --- | --- | --- | --- | --- | --- | --- | --- | --- |
| 5.5 | 1400 | 150 | 0.058 | 0.79 | 0.024 | 14 | 0.005 | IL6R-P759/IL6R-L (antibody, human IgG1, kappa) heavy: QVQLQESGPGLVKPSETLSLTCAVSGHSISHDHAWSWVRQPPGEGLEWIGFISYSGITNYNPSLQGRVTISRDNSKNTLYLQMNSLRAEDTAVYYCARSLARTTAMDYWGEGTLVTVSSASTKGPSVFPLAPSSKSTSGGTAALGCLVKDYFPEPVTVSWNSGALTSGVHTFPAVLQSSGLYSLSSVVTVPSSSLGTQTYICNVNHKPSNTKVDKKVEPKSCDKTHTCPPCPAPDLLGDDSVFLFPPKPKDTLMISRTPEVTCVVVDVSDEDGEVKFNWYVDGVEVHNAKTKPREEQYNSTYRVVSVLTVLHQDWLNGKEYKCKVSNKGLPSSIEKTISKAKGQPREPQVYTLPPSRDELTKNQVSLTCLVKGFYPSDIAVEWESNGQPENNYKTTPPVLDSDGSFFLYSKLTVDKSRWQQGNVFSCSVMHEALHNHYTQKSLSLSP light: not shown |
| 1.7 | 2300 | 100 | 0.188 | 0.48 | 0.026 | 21 | 0.008 | IL6R-P757/IL6R-L (antibody, human IgG1, kappa) heavy: QVQLQESGPGLVKPSETLSLTCAVSGHSISHDHAWSWVRQPPGEGLEWIGFISYSGITNYNPSLQGRVTISRDNSKNTLYLQMNSLRAEDTAVYYCARSLARTTAMDYWGEGTLVTVSSASTKGPSVFPLAPSSKSTSGGTAALGCLVKDYFPEPVTVSWNSGALTSGVHTFPAVLQSSGLYSLSSVVTVPSSSLGTQTYICNVNHKPSNTKVDKKVEPKSCDKTHTCPPCPAPELLGGDSVFLFPPKPKDTLMISRTPEVTCVVIDVAEEDGEVKFNWYVDGVEVHNAKTKPREEQYNSTYRVVSVLTVLHQDWLNGKEYKCKVSNKGLPSSIEKTISKAKGQPREPQVYTLPPSRDELTKNQVSLTCLVKGFYPSDIAVEWESNGQPENNYKTTPPVLDSDGSFFLYSKLTVDKSRWQQGNVFSCSVMHEALHNHYTQKSLSLSP light: not shown |
